Source: publication PMC12618784

How the values were obtained:
Porin, Q94920 [1] = target: T1, Porin, Q94920; experiment: pull-down (anti-HA immunoprecipitation) with mass spectrometry; settings: chain shown with the change; 3rd instar larval muscle tissue (mef2-Gal4); four individual biological replicates; read off a plot
T1 chain: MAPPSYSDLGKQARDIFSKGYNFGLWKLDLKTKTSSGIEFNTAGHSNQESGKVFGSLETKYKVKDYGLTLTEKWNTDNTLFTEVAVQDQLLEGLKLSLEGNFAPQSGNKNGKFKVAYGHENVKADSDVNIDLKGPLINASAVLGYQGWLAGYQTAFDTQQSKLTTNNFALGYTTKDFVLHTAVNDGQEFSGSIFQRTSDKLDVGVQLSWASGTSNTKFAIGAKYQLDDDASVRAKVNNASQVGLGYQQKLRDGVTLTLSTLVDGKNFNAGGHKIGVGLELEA

Porin::HA, Q94920 = target: T2, Porin::HA, Q94920; experiment: co-immunoprecipitation (anti-GFP beads), quantified blot; settings: chain shown with the change; transfected Sf21 cells; values normalised to the corresponding amounts of precipitated Dmel\Tmem43; parent: est. 0.75; read off a plot
T2 chain: T1 chain

[2] = target: T3, Sphingosine-1-phosphatase lyase (Sply), Q9V7Y2; experiment: TurboID biotin proximity labelling with mass spectrometry; settings: chain shown with the change; 3rd instar larval muscle tissue (mef2-Gal4); parent: 1
T3 chain: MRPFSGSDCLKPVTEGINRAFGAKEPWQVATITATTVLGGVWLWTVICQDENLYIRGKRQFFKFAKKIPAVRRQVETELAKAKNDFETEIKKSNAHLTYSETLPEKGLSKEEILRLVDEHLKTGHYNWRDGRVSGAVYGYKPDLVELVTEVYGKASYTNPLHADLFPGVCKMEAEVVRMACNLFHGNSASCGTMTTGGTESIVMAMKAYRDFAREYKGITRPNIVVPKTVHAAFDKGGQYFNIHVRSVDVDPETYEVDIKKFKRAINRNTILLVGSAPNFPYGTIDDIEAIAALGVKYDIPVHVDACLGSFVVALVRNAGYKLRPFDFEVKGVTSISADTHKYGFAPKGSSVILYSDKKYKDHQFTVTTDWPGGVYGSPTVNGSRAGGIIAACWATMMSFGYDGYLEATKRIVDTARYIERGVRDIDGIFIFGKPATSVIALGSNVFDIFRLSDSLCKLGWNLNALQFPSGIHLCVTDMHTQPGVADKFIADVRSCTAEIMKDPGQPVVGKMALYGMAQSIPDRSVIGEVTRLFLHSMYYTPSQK

Mitofilin, P91928 = target: T4, Mitofilin, P91928; experiment: as above; settings: chain shown with the change; 3rd instar larval muscle tissue (mef2-Gal4); parent: 1
T4 chain: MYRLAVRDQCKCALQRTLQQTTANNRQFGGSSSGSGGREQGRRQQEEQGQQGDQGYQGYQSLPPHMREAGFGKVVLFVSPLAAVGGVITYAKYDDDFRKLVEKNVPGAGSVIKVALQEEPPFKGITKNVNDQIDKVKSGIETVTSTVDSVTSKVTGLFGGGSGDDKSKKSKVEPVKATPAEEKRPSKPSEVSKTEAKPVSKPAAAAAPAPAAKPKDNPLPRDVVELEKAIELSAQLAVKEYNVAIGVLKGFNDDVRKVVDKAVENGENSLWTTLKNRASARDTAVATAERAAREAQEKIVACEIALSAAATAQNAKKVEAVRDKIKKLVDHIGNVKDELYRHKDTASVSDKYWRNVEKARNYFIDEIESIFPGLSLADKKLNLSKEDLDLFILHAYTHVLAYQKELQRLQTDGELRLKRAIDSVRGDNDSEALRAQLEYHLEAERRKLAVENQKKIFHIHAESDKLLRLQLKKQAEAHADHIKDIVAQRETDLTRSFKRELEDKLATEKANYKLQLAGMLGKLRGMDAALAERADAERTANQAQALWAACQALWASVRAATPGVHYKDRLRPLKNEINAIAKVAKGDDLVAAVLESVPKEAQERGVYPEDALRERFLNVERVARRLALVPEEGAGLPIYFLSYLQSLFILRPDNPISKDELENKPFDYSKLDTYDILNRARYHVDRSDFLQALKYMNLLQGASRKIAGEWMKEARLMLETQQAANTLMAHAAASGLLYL

SERCA, P22700 = experiment: as above; settings: chain shown with the change; 3rd instar larval muscle tissue (mef2-Gal4); parent: 1
Porin, Q94920 [3] = target: T1, Porin, Q94920; experiment: as above; settings: chain shown with the change; 3rd instar larval muscle tissue (mef2-Gal4); parent: 1

Chain of SERCA, P22700 (P22700 whole entry, the tested form may be a part): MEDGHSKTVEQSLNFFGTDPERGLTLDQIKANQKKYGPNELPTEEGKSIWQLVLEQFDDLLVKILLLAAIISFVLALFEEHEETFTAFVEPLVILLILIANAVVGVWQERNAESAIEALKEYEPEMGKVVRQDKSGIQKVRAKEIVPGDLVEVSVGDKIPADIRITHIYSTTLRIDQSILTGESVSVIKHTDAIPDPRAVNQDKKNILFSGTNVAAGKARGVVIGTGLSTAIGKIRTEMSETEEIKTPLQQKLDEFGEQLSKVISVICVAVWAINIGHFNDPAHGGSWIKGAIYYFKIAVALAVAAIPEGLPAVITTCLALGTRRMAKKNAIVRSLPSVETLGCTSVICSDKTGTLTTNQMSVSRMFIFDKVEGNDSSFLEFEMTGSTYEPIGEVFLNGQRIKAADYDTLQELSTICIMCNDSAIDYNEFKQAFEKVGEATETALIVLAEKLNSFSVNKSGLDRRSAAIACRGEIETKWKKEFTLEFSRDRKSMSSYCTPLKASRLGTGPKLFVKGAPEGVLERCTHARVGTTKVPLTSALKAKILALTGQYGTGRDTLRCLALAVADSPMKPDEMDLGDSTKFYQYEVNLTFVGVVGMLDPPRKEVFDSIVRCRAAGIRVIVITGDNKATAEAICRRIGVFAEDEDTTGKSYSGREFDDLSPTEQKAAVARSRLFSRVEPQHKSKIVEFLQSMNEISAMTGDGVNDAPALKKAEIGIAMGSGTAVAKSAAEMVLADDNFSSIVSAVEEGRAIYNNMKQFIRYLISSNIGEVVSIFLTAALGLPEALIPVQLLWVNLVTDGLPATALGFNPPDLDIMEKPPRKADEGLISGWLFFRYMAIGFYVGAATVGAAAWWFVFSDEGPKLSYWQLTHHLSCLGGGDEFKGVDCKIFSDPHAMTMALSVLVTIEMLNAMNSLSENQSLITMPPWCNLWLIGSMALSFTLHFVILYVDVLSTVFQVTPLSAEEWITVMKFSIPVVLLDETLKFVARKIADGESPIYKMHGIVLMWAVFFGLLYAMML

B1: Dmel\Tmem43wt::HA, Q9VSB9 p.S333L (protein)
chain: MASLSETLRSHWPIALFGVILFVAGGTELYWNEGRAVHNMMALDEAHADIYSVRFTEEEQEVGLEGRIVHLSGPILVGEPLTEPDYNIQLLAVKLRRRVQMYQWVEEAVEHNYGDSVGTTHSDSRTYYYTREWRDKIVDSRNFYNRHGHTNPSHFPIESHVQVADAVFIGRYELGAEVKEKFNNYQELTSDIRPEDSGVKLHLGIYYHTNDVFNPEVGDLRLLFSFAGMEGEVFSVVGKLSGNKLVPYITSRGVPVLLVYPGGLSVQEVFRLEARAQVLHTWWWRFVGWLLIFFGVTCNTKILRLLFVRVPLLVALAPDPQFPVTGNLLIAFLLALTIAAVAWILHRPVIGACLLLAGASPYVWFTRNLVDYHRLD
With B1 as the binder, how does the ratio to parent (Porin, Q94920 [1]) read?
The ratio to parent was 0.4.

B2: Dmel\Tmem43wt::GFP, Q9VSB9 p.S333L (protein)
chain: B1 chain
How did the response (Porin::HA, Q94920) turn out when B2 was run?
The response was 0.05.

B3: Dmel\Tmem43wt::TurboID, Q9VSB9 p.S333L (protein)
chain: B1 chain
Which results are given for B3?
ratio to parent [2]: 0.23; ratio to parent (Mitofilin, P91928): 0.17; ratio to parent (SERCA, P22700): 0.17; ratio to parent (Porin, Q94920 [3]): 0.13
